# Data as given in US20160319265.
# System: TEV substrate
substance,measurement,value
AcTEV protease,"TEV Substrate Cleavage (%), 30 minute",73.9%
same,"TEV Substrate Cleavage (%), 60 minute",91.6%
same,"TEV Substrate Cleavage (%), 120 minute",97.2%
